# Article PMC10442823
# pKd: −log10 of the molar value.
# Assays:
# [1] = biological target: His-tagged human FcγRIIIa (V158 allotype), extracellular domain (amino acids 17-208) (human) (UniProt P08637); experiment: SPR
# [2] = biological target: His-tagged human FcγRIIIa (F158 allotype), extracellular domain (amino acids 17-208) (human) (UniProt P08637); experiment: SPR
# [3] = biological target: His-tagged human FcγRIIIa (V158 allotype), extracellular domain (amino acids 17-208) (human) (UniProt P08637); experiment: SPR; Biacore T200; His-tagged FcγRIIIa captured (40 RU) by anti-His antibody on a CM5 chip; Rituxan flowed over, HEPES-EP running buffer; KD from steady state; three independent runs
Substance,pKd [1],pKd [2],pKd [3]
mammalian cell produced rituximab (Rituxan) (antibody),,,6.58
"rituximab (Rx), plant-produced, expressed alone",7.74,7.18,

# Further substances by rising pKd [1], results first:
pKd [1],pKd [2],pKd [3],Substance
6.58,,,mammalian cell produced rituximab (Rituxan)
7.89,7.30,,"rituximab (Rx), plant-produced, co-expressed with LdOST"
7.92,7.26,,"rituximab (Rx), plant-produced, co-expressed with LmSTT3D"
